Ends that are not written are not given here.
What was measured:
transferrin [1] = target: T1, transferrin (human, UniProt P02787 20-698); experiment: SPR (Biacore T100), transferrin immobilised
T1 construct: also called TRF; pooled human transferrin (Sigma)
From the text: (§1) Affinity plots were generated for each peptide and fit using a steady state affinity model.

transferrin [2] = target: T1, transferrin; experiment: SPR (Biacore T100), transferrin immobilised (9758 RU), steady state affinity fit
From the text: as §1

transferrin [3] = target: T1, transferrin; experiment: reference TRF26 lead peptide
transferrin [4] = target: T1, transferrin; experiment: affinity characterisation of Example 29 (SPR; format for the purified peptides not stated)
albumin = experiment: SPR
transferrin [5] = target: T1, transferrin; experiment: SPR, transferrin immobilised, Kd from kinetics
From the text: Flow rates and contact times are adjusted as necessary to provide the surface concentration of target desired for the intended application, and may vary by target. In general, for evaluating whether binding occurs, it is preferable to immobilize a relatively large quantity of target, and higher flow rates and/or longer contact times may be used. For determining kinetics, it is preferable to limit the amount of target immobilized so as to minimize rebinding and avidity effects, and lower flow rates and/or contact times may be used.

transferrin [6] = target: T1, transferrin; experiment: SPR (Biacore A-100), purified peptide at several concentrations, equilibrium
From the text: A Biacore A-100 Surface Plasmon Resonance (SPR) system was used to measure the binding response of each peptide to several different target proteins immobilized on a gold surface. The A-100 has four different flow cells and within each flow cell are five addressable spots. Therefore four different proteins and a negative control reference can be used per flow cell. […] Sensorgrams are collected from each immobilized protein, so a binding profile for each analyte versus each of the protein targets is generated for each injection. Target proteins were immobilized using a biotin capture approach in which a CM5 chip was activated using standard amine coupling chemistry and Neutravidin was covalently coupled to the chip. Each biotinylated protein was injected over a single spot and the amount of protein captured was measured. In this manner four proteins were immobilized per flow cell. In this example, the same four proteins were captured in all four flow cells for this experiment.

[7] = target: T2, Tumor Necrosis Factor-alpha (UniProt P01375 77-233); experiment: SPR; reference TNF1 lead peptide
T2 construct: Immobilised on pipette tips or SPR chips (amine coupling or biotin capture); also called TNF-α; TNF-alpha
T2 sequence (P01375 77-233 limits assumed): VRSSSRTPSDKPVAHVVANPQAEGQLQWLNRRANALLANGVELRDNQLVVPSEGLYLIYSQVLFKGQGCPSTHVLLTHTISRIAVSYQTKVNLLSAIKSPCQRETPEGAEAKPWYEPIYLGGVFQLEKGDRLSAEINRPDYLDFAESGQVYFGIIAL
Method: (§2) Point-mutant libraries were prepared in 96-well stock plates From the stock plate, peptides were diluted to 50 μM concentration in Biacore HBS-EP buffer (GE Healthcare, Piscataway, N.J.) containing 1 mg/ml carboxymethyl-dextran (Sigma-Aldrich, St. Louis, Mo.) to reduce non-specific binding to the CM-5 SPR chip surface. TNF-αt was captured on a CM-5 chip surface at different capture levels on spots 1, 2, 4, and 5 across all four flow cells corresponding to a 40-200 RU range of predicted Rₘₐₓ binding responses. Spot 3 contained only immobilized neutravidin and served as a reference spot.
(§3) Purified point-mutant affinities were measured on the Biacore A100 using SPR equilibrium binding response across a series of peptide concentrations on an SPR chip with TNF-α captured as described above.

[8] = target: T2, Tumor Necrosis Factor-alpha; experiment: SPR (Biacore A100), TNF-α captured, equilibrium response over a concentration series
Method: as §2, §3

[9] = target: T2, Tumor Necrosis Factor-alpha; experiment: SPR (Biacore A100), TNF-α captured, equilibrium response over a concentration series; the cell prints '93', read as 9.3 (decimal point lost)
Method: as §2, §3

[10] = target: T2, Tumor Necrosis Factor-alpha; experiment: SPR-derived binding energies
[11] = target: T2, Tumor Necrosis Factor-alpha; experiment: fluorescence anisotropy; fluorescence anisotropy
[12] = target: T2, Tumor Necrosis Factor-alpha; experiment: SPR, kinetic fits of sensorgrams (printed 'kon' in a sentence on the off-rate)
[13] = target: T2, Tumor Necrosis Factor-alpha; experiment: SPR, kinetic fits of several sensorgrams; Kd from kinetic fits, not equilibrium responses

T1 sequence (P02787 20-698 limits assumed): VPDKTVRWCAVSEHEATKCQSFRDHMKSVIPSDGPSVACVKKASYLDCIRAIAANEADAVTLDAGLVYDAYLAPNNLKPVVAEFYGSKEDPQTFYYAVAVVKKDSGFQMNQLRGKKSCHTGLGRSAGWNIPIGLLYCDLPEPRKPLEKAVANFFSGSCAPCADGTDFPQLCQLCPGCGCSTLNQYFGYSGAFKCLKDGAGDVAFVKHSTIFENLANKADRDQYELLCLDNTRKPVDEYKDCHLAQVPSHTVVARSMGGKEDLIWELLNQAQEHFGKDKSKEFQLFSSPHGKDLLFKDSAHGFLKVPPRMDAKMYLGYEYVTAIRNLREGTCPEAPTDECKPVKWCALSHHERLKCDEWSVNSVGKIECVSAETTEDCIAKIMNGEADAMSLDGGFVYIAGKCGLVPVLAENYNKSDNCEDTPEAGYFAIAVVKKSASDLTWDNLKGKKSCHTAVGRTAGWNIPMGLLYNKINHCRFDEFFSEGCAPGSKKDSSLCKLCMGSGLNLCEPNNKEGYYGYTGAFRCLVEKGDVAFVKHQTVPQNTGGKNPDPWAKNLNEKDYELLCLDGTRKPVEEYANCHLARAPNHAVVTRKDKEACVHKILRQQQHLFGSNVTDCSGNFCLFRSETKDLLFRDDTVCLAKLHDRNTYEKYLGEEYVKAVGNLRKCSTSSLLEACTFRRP

B1: TBPM023 (peptide)
peptide: AHKVVPQRQMRHAYSRYGSC
notes: Clone from mRNA display on a doped TRF26 library; also called TBPMO23
- fold improvement in affinity relative to TRF26 (transferrin [1]): > 10 fold
- Kd (transferrin [2]): 11.6 µM

B2: TRF26 P6Y+H12F double mutant (peptide)
peptide: AHKVVYQRQIRFAYNRYGSC
notes: also called P6Y + 1112F (so in the source)
- Kd Fold-Change Relative to Lead (transferrin [3]): 190 fold
- Kd (transferrin [4]): 0.5 µM

B3: linker-optimized BP1/BP2 DNA-linked synbody (BP1 on the template strand, BP2 at position 13 from the 3' end of the variable strand) (designed binder)
peptide 1: GTEKGTSGWLKTGSC
peptide 2: EGEWTEGKLSLRGSC
modifications: not fully specified (some residues); cysteine pairing not given here; also: DNA strands hybridised
notes: The two peptide-DNA conjugates are held together by hybridisation of the DNA strands; also called Gal80 synbody; BP1-BP2 containing synbody
- Kd relative to the Kd for gal80 (fold) (albumin): > 1000 fold

B4: synbody comprising TRF-26 and TRF-23 (Example 9, lysine-linked) (designed binder)
peptide 1: AHKVVPQRQIRHAYNRYGSG
peptide 2: FRGWAHIFFGPHVIYRGGSG
modifications: not fully specified (bridges); also: C-termini joined to alpha or epsilon amines of branching Lys, orientation not given here, followed by C-terminal Cys, Gly or Ala, not given here which
notes: probably the same construct family as SYN23-26
- Kd (transferrin [5]): 0.15 µM

B5: TRF101 (peptide)
peptide: ARDLLIQKNSGQDVDHRGSC
notes: Screened unpurified, then resynthesised and HPLC purified
- Kd (transferrin [6]): 78.9 µM

Binder: FERYPLMMPWKFLQSRQGSC [TNF1 D4Y+S11K double mutant]
- Kd Fold-Change Relative to Lead [7]: 17 fold
- Observed Binding ΔG [8]: -6.67 kcal/mol
- Kd [9]: 9.3 µM

Binder: FERSYLKMPWKFLQSRQGSC [TNF1-opt (D4S+P5Y+M7K+S11K quadruple mutant)]
- difference in observed binding energy relative to D4S+P5Y+S11K [10]: -0.94 kcal/mol
- difference in observed binding energy relative to P5Y+M7K [10]: -1.73 kcal/mol
- difference in observed binding energy relative to P5Y+S11K [10]: -1.66 kcal/mol
- Kd Fold-Change Relative to Lead [7]: 100 fold
- Kd [11]: 1.1 µM
- koff [12]: 0.2 s⁻¹
- Kd [8]: 1.6 µM
- Observed Binding ΔG [8]: -7.97 kcal/mol
- Kd [13]: 0.7 µM

From patent publication US20190194358A1 (ARIZONA BOARD OF REGENTS A BODY CORPORATE OF THE STATE OF …, published 2019)
